Assay results as given in the supplement of paper PMC12455559.
± gives the standard deviation of the averaged measurements.

Assays:
[1] = PET hydrolysis, aromatic products released after 48 h (umol product/mg enzyme); higher = more PET depolymerization activity
Method in brief: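 Tagless, SUMO-cleaved candidate enzymes were purified on nickel beads, and 5 μg (50 μL) was added to 3.5 mg amorphous PET film or crystalline PET powder in 450 μL buffer. Buffers were 50 mM NaCitrate (pH 4.5, 5.5), 50 mM NaPhosphate (pH 6.5, 7.5) or glycine (pH 8.5). Sealed plates were incubated 48 h at 40 or 60 °C without shaking. PET hydrolysis activity is the aromatic product in the supernatant, read by absorbance at 260 and 280 nm against buffer blanks and expressed per mg enzyme.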

[2] = melting temperature (DSF); higher = more thermostable
Method in brief: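 After expression in E. coli C41(DE3), the candidate enzymes were bound to nickel beads and released with SUMO protease. Their melting temperature was found by differential scanning fluorimetry with Sypro Orange on a Bio-Rad CFX96. Each sealed PCR plate well held 45 μL enzyme (0 to 0.3 mg/mL) plus 5 μL 5X dye, and fluorescence was read for 250 cycles from 25 °C at 0.3 °C per cycle (ramp 0.3 °C/s).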

[3] = purified protein yield per well (BCA); higher = higher soluble expression
Method in brief: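 Purified protein yield per well is reported, as measured by the Pierce Rapid Gold BCA kit. The enzymes came from E. coli C41(DE3) autoinduction cultures of 2 mL with 100 µg/mL kanamycin, held at 37 °C for 2 h and 18 °C for 40 h, then lysed and purified on Ni-charged magnetic beads with SUMO protease release. The detection threshold is 25 ug (0.1 mg/mL), and lower values are under it.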

[4] = substrate: aFilm, 40 °C, pH 4.5
[5] = substrate: aFilm, 40 °C, pH 5.5
[6] = substrate: aFilm, 40 °C, pH 6.5
[7] = substrate: aFilm, 40 °C, pH 7.5
[8] = substrate: aFilm, 60 °C, pH 4.5
[9] = substrate: aFilm, 60 °C, pH 5.5
[10] = substrate: aFilm, 60 °C, pH 6.5
[11] = substrate: aFilm, 60 °C, pH 7.5
[12] = substrate: cryPow, 40 °C, pH 4.5
[13] = substrate: cryPow, 40 °C, pH 5.5
[14] = substrate: cryPow, 40 °C, pH 6.5
[15] = substrate: cryPow, 40 °C, pH 7.5
[16] = substrate: cryPow, 60 °C, pH 4.5
[17] = substrate: cryPow, 60 °C, pH 5.5
[18] = substrate: cryPow, 60 °C, pH 6.5
[19] = substrate: cryPow, 60 °C, pH 7.5

| Sequence | PET hydrolysis [1, 4] | PET hydrolysis [1, 5] | PET hydrolysis [1, 6] | PET hydrolysis [1, 7] | PET hydrolysis [1, 8] | PET hydrolysis [1, 9] | PET hydrolysis [1, 10] | PET hydrolysis [1, 11] | PET hydrolysis [1, 12] | PET hydrolysis [1, 13] | PET hydrolysis [1, 14] | PET hydrolysis [1, 15] | PET hydrolysis [1, 16] | PET hydrolysis [1, 17] | PET hydrolysis [1, 18] | PET hydrolysis [1, 19] | melting temperature [2] [C] | purified protein yield per well [3] [µg] |
| --- | --- | --- | --- | --- | --- | --- | --- | --- | --- | --- | --- | --- | --- | --- | --- | --- | --- | --- |
| ADNPYQRGPDPTRTSVAAVNGPFANTSVSVPTGYGFNGGRIYYPTDTSQGTFGAIAISPGYTALFSAELAWMGPWLASHGFVVIGIETNSRNDFDTARGTQLLAALDYLTQQSPVRDRVDPNRLAVSGHSMGGGGALSAAIRRSSLKAVVGIAPYSPSSNLANDRVPTMIFSGQADTVVTPSYATGLYNSLPATTESVYLEVAGADHGFMVGRSNPVMIRTMLPFVKMFIDNDTRYSQFLCPLLDSSGVVTYRSTCPLLPPAPTTPPPTGTPTPTPSSNPTTPPTTPPSTPTA [ESM061] | < 3 | < 3 | < 3 | < 3 | < 3 | < 3 | < 3 | < 3 | 11 ± 2.8 | 23 ± 1.4 | 5 | < 3 | < 3 | < 3 | < 3 | < 3 | 62.8 | 408 |
| ADNPYQRGPDPTRTSVAAVNGPFANTSVSVPTGYGFNGGRIYYPTDTSQGTFGAIAISPGYTALFSAELAWMGPWLASHGFVVIGIETNSRNDFDTARGTQLLAALDYLTQQSPVRDRVDPNRLAVSGHSMGGGGALSAAIRRSSLKAVVGIAPYSPSSNLANDRVPTMVFSGQADTVVTPSYATGLYNSLPATTESVYLEVAGADHGFMVGRSNPVMIRTMLPFVKMFIDNDTRYSQFLCPLLDSSGVVTYRSTCPLLPPAPTPSNTGTTPPTTPPVTPTTPPSSASEIVGVQSGRCIDVPNASRNNGTRVQLYDCNRQANQSWTYTSGKQLQVYGNMCLDAAGSGNGAAVQIYSCHSQTNQQWNVNSNGTISGVQSGRCLDVWSTANGAQIQLYDCHGGANQRFNLVPRT [ESM058] | < 3 | < 3 | < 3 | < 3 | < 3 | < 3 | < 3 | < 3 | 5.5 ± 0.71 | 12.5 ± 0.71 | 11 | 4.5 ± 0.71 | < 3 | < 3 | < 3 | < 3 | 59.5 | 281 |
| ADNPYQRGPDPTRTSVATENGPFANTSVSVPTGYGFNGGRIYYPTDTSQGTFGAIAISPGYTALFSAELAWMGPWLASHGFVVIGIETNSRNDFDTARGTQLLAALDYLTQQSPVRDRVDPTRLAVAGHSMGGGGALSAATRRSSLKAAVGIAPYSPSSNLANDRVPTMIFSGQADTVVTPSYATSLYNSLPSTTESIYLEVAGADHGFMVGRSNPVMIRTMLPFLKMFIDNDARYSQFLCPLLDSSGVVTSRSTCPLLPSTPTTPPTDPPTDPPTNPPGSANEIVGTQSGRCVDVPNAATTNGTRVQLYTCNKQTNQAWTYTSGKQLQVYGTMCLDAAGSGNGAAVQIYSCHSQTNQQWNVNSNGTISNVQSGRCLDVWSTSNGAQIQLYDCHGQTNQQFRLAALGGGTQTPTPTPTTPPPTGGACDLPSSYRWSSTG [ESM143] |  |  |  |  |  |  |  |  | < 3 | < 3 | < 3 | < 3 | < 3 | < 3 | < 3 | < 3 | 55.9 | 55.9 |
| ADNPYQRGPDPTRTSVATERGPFANTSVSVPSGYGFNGGRIYYPTDTSQGTFGAIAISPGYTALFSAELAWMGPWLASHGFVVIGIETNSRNDFDTARGTQLLAALDYLTQQSPVRDRIDPNRLAVSGHSMGGGGALSAAMRRSSLKAVVGIAPYSPSSNLANDRVPTMIFSGQADTVVTPSYAMGLYNSIPAGTKSAYLEVAGGDHGFMVGRSNPVLIRTMLPFLKIFIDNDARYSQFLCPLLDNSGVVTYRSTCPFLPTTPTTPPPTG [ESM065] |  |  |  |  |  |  |  |  | 21 | 29 | 7 | < 3 | < 3 | 4 | < 3 | < 3 | 67.9 | 250 |
| ADNPYQRGPDPTRTSVTAENGPFANTSVSVPTGYGFNGGRIYYPTDTSQGTFGAIAISPGYTALFSAELAWMGPWLASHGFVVIGIETNSRNDFDTARGTQLLAALDYLTQQSPIRDRVDPNRLAVAGHSMGGGGALSAASRRSSLRAVVGIAPYSPSSNLANDRVPTMIFSGQADTVVTPSYATGLYNSLPATTKSVYLEVAGADHGFMVGRSNPVMIRTMLPFVKMFIDNDARYSQFLCPLLDSSGVVTYRSTCPLLPSTPTTPTPTPTDPPTVPPGSANEIVGTQSGRCVDVPNASRNNGTRVQLYDCNKQTNQAWTYTATKQLQVYGNMCLDAAGSGNGAAVQIYSCHSQTNQQWNVNSNGTISSVQSGRCLDAWSTTNGAQIQLYDCHGQTNQQFRLVSLAR [ESM161] |  |  |  |  |  |  |  |  | 10 | 13 | 21 | 6 | < 3 | < 3 | < 3 | < 3 | 63.1 | 137 |
